# Patent US20160376353A1 (DECIMMUNE THERAPEUTICS, published 2016)
# Positions count from the first letter of the chain named. Names and notes keep the numbering of the source. Ends that are not written are not given here.
# T1: N2 peptide (non-muscle myosin neo-epitope N2 12mer sequence)
# T1 construct: also called N2 12-mer peptide
# T1 peptide: LMKNMDPLNDNV
# T2: Biotin-labeled N2 peptide (also: biotin label, position not given here)
# T2 construct: also called immobilized N2
# T2 peptide: LMKNMDPLNDNV
# B1: H2-21G6 / L2-21G6, wild type human IgG1 (antibody, V domains shown)
# VH: QVQLVQSGAEVKKPGASVKVSCKASGYTFTSYYMYWVRQAPGQGLEWIGGINPSNGGTNFNEKFKSKATMTVDKSTSTAYMELRSLRSDDSAVYYCTRWGYDREWFAYWGQGTLVTVSS
# VL: DIVMTQSPLSLPVTPGEPASISCRSSKSLLHSNGNTYLYWFLQKPGQSPQLLIYRMSNLASGVPDRFSGSGSGTDFTLKISRVEAEDVGVYYCMQHLEYPFTFGQGTKLEIKR
# notes: also called H2/L2
# B2: H3-21G6 / L1-21G6, wild type human IgG1 (antibody, V domains shown)
# VH: B1 VH with A16S, M70I, R84S, D89E, S91T
# VL: DIVMTQSPATLSVSPGERATISCRSSKSLLHSNGNTYLYWFQQKPGQPPKVLIYRMSNLASGVPARFSGSGSGTDFTLTISSVEPEDFATYYCMQHLEYPFTFGGGTKLEIKR
# notes: also called H3/L1
# B3: H3-21G6 / L1-21G6, human IgG1 N297Q (antibody, V domains shown)
# VH: B1 VH with A16S, M70I, R84S, D89E, S91T
# VL: B2 VL
# notes: also called H3/L1 N297Q
# B4: H2-21G6 / L2-21G6, human IgG1 N297Q (antibody, V domains shown)
# VH: B1 VH
# VL: B1 VL
# notes: also called H2/L2 N297Q
# B5: H1-21G6 / L1-21G6, wild type human IgG1 (antibody, V domains shown)
# VH: B1 VH with K12V, V20L, R38K, M70L, T76A, R84S, D89E, S91T
# VL: B2 VL
# notes: also called H1/L1
# B6: H2-21G6 / L1-21G6 (Table 2, constant region not stated) (antibody, V domains shown)
# VH: B1 VH
# VL: B2 VL
# notes: human kappa light chain; also called H2/L1
# B7: H4-21G6 / L2-21G6 (Table 3B, constant region not stated) (antibody, V domains shown)
# VH: B1 VH with I48M, K67R, A68V, V72T, K74T, S91T
# VL: B1 VL
# notes: human kappa light chain; also called H4/L2
# B8: H1-21G6 / L2-21G6, wild type human IgG1 (antibody, V domains shown)
# VH: B1 VH with K12V, V20L, R38K, M70L, T76A, R84S, D89E, S91T
# VL: B1 VL
# notes: also called H1/L2
# B9: H2-21G6 / L3-21G6, wild type human IgG1 (antibody, V domains shown)
# VH: B1 VH
# VL: B1 VL with S7T, P12S, V13Y, E17Q
# notes: also called H2/L3
# B10: H4-21G6 / L2-21G6, human IgG1 N297Q (antibody, V domains shown)
# VH: B1 VH with I48M, K67R, A68V, V72T, K74T, S91T
# VL: B1 VL
# notes: also called H4/L2 N297Q
# B11: H2-21G6 / L3-21G6 (Table 2, constant region not stated) (antibody, V domains shown)
# VH: B1 VH
# VL: B1 VL with S7T, P12S, V13Y, E17Q
# notes: human kappa light chain; also called H2/L3
# B12: H1-21G6 / L3-21G6, wild type human IgG1 (antibody, V domains shown)
# VH: B1 VH with K12V, V20L, R38K, M70L, T76A, R84S, D89E, S91T
# VL: B1 VL with S7T, P12S, V13Y, E17Q
# notes: also called H1/L3
# B13: H3-21G6 / L2-21G6 (Table 2, constant region not stated) (antibody, V domains shown)
# VH: B1 VH with A16S, M70I, R84S, D89E, S91T
# VL: B1 VL
# notes: human kappa light chain; also called H3/L2
# B14: H3-21G6 / L3-21G6, wild type human IgG1 (antibody, V domains shown)
# VH: B1 VH with A16S, M70I, R84S, D89E, S91T
# VL: B1 VL with S7T, P12S, V13Y, E17Q
# notes: also called H3/L3
# B15: H2-21G6 / L3-21G6, human IgG1 N297Q (antibody, V domains shown)
# VH: B1 VH
# VL: B1 VL with S7T, P12S, V13Y, E17Q
# notes: also called H2/L3 N297Q
# B16: H2-21G6 / L1-21G6, wild type human IgG1 (antibody, V domains shown)
# VH: B1 VH
# VL: B2 VL
# notes: also called H2/L1
# B17: H3-21G6 / L3-21G6 (Table 2, constant region not stated) (antibody, V domains shown)
# VH: B1 VH with A16S, M70I, R84S, D89E, S91T
# VL: B1 VL with S7T, P12S, V13Y, E17Q
# notes: human kappa light chain; also called H3/L3
# B18: H3-21G6 / L2-21G6, wild type human IgG1 (antibody, V domains shown)
# VH: B1 VH with A16S, M70I, R84S, D89E, S91T
# VL: B1 VL
# notes: also called H3/L2
# B19: H1-21G6 / L1-21G6, human IgG1 N297Q (antibody, V domains shown)
# VH: B1 VH with K12V, V20L, R38K, M70L, T76A, R84S, D89E, S91T
# VL: B2 VL
# notes: also called H1/L1 N297Q
# B20: H1-21G6 / L3-21G6 (Table 2, constant region not stated) (antibody, V domains shown)
# VH: B1 VH with K12V, V20L, R38K, M70L, T76A, R84S, D89E, S91T
# VL: B1 VL with S7T, P12S, V13Y, E17Q
# notes: human kappa light chain; also called H1/L3
# B21: Chimeric 21G6, human heavy chain constant region IgG1 (wild type) (antibody, V domains shown)
# VH: QVQLQQPGAELVKPGASVKLSCKASGYTFTSYYMYWVKQRPGQGLEWIGGINPSNGGTNFNEKFKSKATLTVDKSSSTAYMQLSSLTSEDSAVYYCTRWGYDREWFAYWGQGTLVTVSA
# VL: DIVMTQAAPSVPVTPGESVSISCRSSKSLLHSNGNTYLYWFLQRPGQSPQVLIYRMSNLASGVPDRFSGSGSGTAFTLRISRVEAEDVGVYYCMQHLEYPFTFGSGTKLEIKR
# notes: also called CHIgG1 / Ch; ch21G6 IgG1
# B22: Chimeric 21G6, human heavy chain constant region IgG4 (antibody, V domains shown)
# VH: B21 VH
# VL: B21 VL
# notes: Human IgG4 constant region; also called CHIgG4 / Ch; ch21G6 IgG4
# Columns and labels:
# [1] = target: T1, N2 peptide (non-muscle myosin …); test: SPR (BIACORE X100), antibody captured by anti-human Fc, N2 peptide in solution
# Source text: (§1) The remaining sequences represent the germline sequences with the highest homology that encode productive antibody. All of the humanized sequences maintain the murine 21G6 CDR regions which are shown inside the boxes in FIG. 1. The humanized variable regions were cloned into a vector containing wild type human IgG1, human IgG1 containing a mutation at amino acid 297 (Asn 297 to Q297), human IgG4 containing a mutation at amino acid 228 (serine to proline) and human kappa light chain. Each antibody (heavy and light) combination was expressed by transient co-transfection in 293A cells (in the presence of low Ig serum). The antibody containing supernatants were collected and analyzed for binding to the N2 peptide by ELISA and BIACORE™ X100 system. All experiments were performed using a BIACORE™ X100 system. For antibody capture experiments, a CM5 chip was prepared by 10 ul/minute injection of EDC/NHS (N-ethyl-N′-(3-dimethylaminopropyl) carbodiimide (EDC), N-hydroxysuccinimide (NHS) for 7 minutes, followed by a 10 ul/minute injection of anti-human Fc (GE Lifesciences) at a concentration of 25 ug/ml in sodium acetate at pH 5 for 3 minutes. Ethanolamine-HCl was injected for 7 minutes at 10 ul/minute. The chimeric or humanized antibodies were captured onto flow cell 2 and N2 peptide at varying concentrations was flowed over flow cells 1 and 2 at a rate of 30 ul/minute with a contact time of 120 seconds and a dissociation period of 120 seconds. Complete removal of captured antibody was accomplished by regeneration with 3M MgCl2 for 30 seconds at a flow rate of 10 ul/minute. For peptide immobilized experiments, a CM5 chip was prepared by 10 ul/minute injection of EDC/NHS (N-ethyl-N′-(3-dimethylaminopropyl) carbodiimide (EDC), N-hydroxysuccinimide (NHS) for 7 minutes, followed by a 10 ul/minute injection of NEUTRAVIDIN® protein (ThermoFisher Pierce) at a concentration of 5 ug/ml in sodium acetate, pH 5 to an immobilization response of 100-200RU. Ethanolamine-HCl was injected for 7 minutes at 10 ul/minute. Biotin-labeled N2 peptide was captured on flow channel 2 with the goal of an experimental Rmax of about 50-100RU. Purified chimeric or humanized antibodies were flowed over both flow channels at a rate of 30 ul/min for a contact time of 120 seconds and allowed to dissociate for 600 seconds.
# [2] = target: T2, Biotin-labeled N2 peptide; test: SPR (BIACORE X100), biotin-N2 peptide on NeutrAvidin chip, antibody in solution; kd/ka (monovalent)
# Source text: as §1
# [3] = target: T1, N2 peptide (non-muscle myosin …); test: SPR (BIACORE X100), IgG capture and direct immobilization of antibody, N2 peptide in solution
# Source text: The remaining sequences represent the germline sequences with the highest homology that encode productive antibody. All of the humanized sequences maintain the murine 21G6 CDR regions which are shown inside the boxes in FIG. 1. The humanized variable regions were cloned into a vector containing wild type human IgG1, human IgG1 containing a mutation at amino acid 297 (Asn 297 to Q297), human IgG4 containing a mutation at amino acid 228 (serine to proline) and human kappa light chain. Each antibody (heavy and light) combination was expressed by transient co-transfection in 293A cells (in the presence of low Ig serum). The antibody containing supernatants were collected and analyzed for binding to the N2 peptide by ELISA and BIACORE™ X100 system. All experiments were performed using a BIACORE™ X100 system. […]
# [4] = target: T2, Biotin-labeled N2 peptide; test: SPR (BIACORE X100), biotin-N2 peptide on NeutrAvidin chip, antibody in solution; steady state affinity
# Source text: as §1, with “The” for “The remaining sequences represent the germline sequences with the highest homology that encode productive antibody. All of the humanized sequences maintain the murine 21G6 CDR regions which are shown inside the boxes in FIG. 1. The”
Binder,Kd [1] [µM],Kd [2] [µM],other results
B1,6.4 to 8.4,–,–
B2,7.9,–,–
B3,20,–,–
B4,3.1 to 3.7,–,–
B5,6.6 to 7.7,–,–
B6,–,0.66,–
B7,–,0.1,–
B8,17,–,–
B9,9.56,–,–
B10,–,–,Kd [3]: 6 to 11 µM
B11,–,0.14,Kd [4]: 0.68 µM
B12,20.9,–,–
B13,–,0.64,–
B14,9.38,–,–
B15,8.8,–,–
B16,9.8 to 11,–,–
B17,–,0.9,–
B18,11.5,–,–
B19,9,–,–
B20,–,1.58,Kd [4]: 1 µM
B21,6 to 7,–,–
B22,4.1,0.8,Kd [4]: 0.113 µM
